Assay results taken from PMC7072344, “Structure–Activity Relationship of HER2 Receptor Targeting Peptide and Its Derivatives in Targeted Tumor Therapy” (Biomolecules, 2020).

Biological target: T1, human epidermal growth factor 2 (HER2) receptor (human (endogenous in MDA-MB-453, …, UniProt P04626 23-1255))
T1 construct: HER2 (ErbB2), 185 kDa transmembrane glycoprotein, endogenous on human breast cancer cell lines; No isolated HER2 was tested; also called ErbB2; source: endogenous, on MDA-MB-453 breast cancer cells (highest HER2 expression); also on MDA-MB-435 Br and MCF-7 cells (medium HER2 expression)
Assay: flow cytometry on cells; MDA-MB-453 cells incubated with CF-labelled peptides, 12.5 µM, 3 h, 37 °C, 5 min trypsinization; read-out percentage of CF+ live cells and mean fluorescence intensity
Details: one partner purified

fold increase of mean fluorescence intensity over P(AA): ~10 fold
B1: CF-KAAYSLGYYNPT-NH2 (peptide)
peptide: {5(6)‑carboxyfluorescein}-KAAYSLGYYNPT-NH2
notes: combined peptide: KAAYSL followed by GYYNPT; also called cP(AA)_P(YY); cP(AA)_(YY); source: synthetic peptide (Fmoc/tBu solid phase, RP-HPLC purified)
